The labels stand for the following.
T1: human GPVI on the platelet surface (human, UniProt Q9HCN6 21-339)
T1 sequence (looked up): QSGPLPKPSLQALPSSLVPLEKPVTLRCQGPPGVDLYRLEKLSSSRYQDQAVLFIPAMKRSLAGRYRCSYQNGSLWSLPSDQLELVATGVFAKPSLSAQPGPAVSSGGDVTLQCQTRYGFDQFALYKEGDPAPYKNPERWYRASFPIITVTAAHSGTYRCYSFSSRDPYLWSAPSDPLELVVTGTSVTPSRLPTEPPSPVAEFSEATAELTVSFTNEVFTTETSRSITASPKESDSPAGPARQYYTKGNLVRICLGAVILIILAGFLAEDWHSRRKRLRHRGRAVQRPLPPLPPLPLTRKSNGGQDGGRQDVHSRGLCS

B1: humanized anti-GPVI Fab VL1 with VH2 (Fab, V domains shown)
VH: QVQLQESGPGLVAPSQSLSITCTVSGFSLTGYGVNWVRQPPSRGLEWLGMIWGDGSTDYQSTLKSRLSISKDNSKSQVFLKMNSLTTDDTARYYCARDLPMDYWGQGTSVTVSS
VL: DIQMTQSPSSLSASVGGRVTITCKASQDINKYIAWYQHKPGKGPSLLIHYTSTLQPGVPSRFSGSGSGRDYSFSISNLQPEDIATYYCLQYANLLTFGGGTKLEIKR
B2: humanized anti-GPVI Fab VL1 with VH4 (Fab, V domains shown)
VH: QVQLQESGPGLVAPSQSLSITCTVSGFSLTYYGVNWVRQPPSRGLEWLGMIWGDGSTDYQSTLKSRLSISKDNSKSQVFLKMNSLTTDDTARYYCARDLPMDYWGQGTSVTVSS
VL: DIQMTQSPSSLSASVGGRVTITCKASQDINKYIAWYQHKPGKGPSLLIHYTSTLQPGVPSRFSGSGSGRDYSFSISNLQPEDIATYYCLQYANLLTFGGGTKLEIKR
B3: humanized anti-GPVI Fab VL1 with VH3 (Fab, V domains shown)
VH: EVQLLESGPGLVAPSGSLSITCTVSGFSLTGYGVNWVRQPPGKGLEWLGMIWGDGSTDYQSTLKSRLSISKDNSKSQVFLKMNSLRTDDTARYYCARDLPMDYWGLGTSVTVSS
VL: DIQMTQSPSSLSASVGGRVTITCKASQDINKYIAWYQHKPGKGPSLLIHYTSTLQPGVPSRFSGSGSGRDYSFSISNLQPEDIATYYCLQYANLLTFGGGTKLEIKR
B4: humanized anti-GPVI Fab VL1 with VH1 (Fab, V domains shown)
VH: QVQLQESGPGLVAPSQSLSITCTVSGFSLTGYGVNWVRQPPSRGLEWLGMIWGDGSTDYQSTLKSRLSISKDTSKSQVFLKMNSLTTDDTARYYCARDLPMDYWGQGTSVTVSS
VL: DIQMTQSPSSLSASVGGRVTITCKASQDINKYIAWYQHKPGKGPSLLIHYTSTLQPGVPSRFSGSGSGRDYSFSISNLQPEDIATYYCLQYANLLTFGGGTKLEIKR
B5: humanized anti-GPVI Fab VL1 with VH5 (Fab, V domains shown)
VH: QVQLQESGPGLVAPSQSLSITCTVSGFSLTGYGVNWVRQPPSRGLEWLGMIWGDGSTDYQSTLKSRLSISKDNSKSQVFLKMNSLTTDDTARYYCARDLPMDEWGQGTSVTVSS
VL: DIQMTQSPSSLSASVGGRVTITCKASQDINKYIAWYQHKPGKGPSLLIHYTSTLQPGVPSRFSGSGSGRDYSFSISNLQPEDIATYYCLQYANLLTFGGGTKLEIKR
B6: humanized anti-GPVI Fab VL3 with VH4 (Fab, V domains shown)
VH: QVQLQESGPGLVAPSQSLSITCTVSGFSLTYYGVNWVRQPPSRGLEWLGMIWGDGSTDYQSTLKSRLSISKDNSKSQVFLKMNSLTTDDTARYYCARDLPMDYWGQGTSVTVSS
VL: DIQMTQSPSSLSASVGGRVTITCKASQDINKYIAWYQHKPGKGPSLLIHYTSTLQPGVPSRFSGSGSGRDYSFSISNLQPEDIATYYCLQYALLLTFGGGTKLEIKR
B7: humanized anti-GPVI Fab VL3 with VH2 (Fab, V domains shown)
VH: QVQLQESGPGLVAPSQSLSITCTVSGFSLTGYGVNWVRQPPSRGLEWLGMIWGDGSTDYQSTLKSRLSISKDNSKSQVFLKMNSLTTDDTARYYCARDLPMDYWGQGTSVTVSS
VL: DIQMTQSPSSLSASVGGRVTITCKASQDINKYIAWYQHKPGKGPSLLIHYTSTLQPGVPSRFSGSGSGRDYSFSISNLQPEDIATYYCLQYALLLTFGGGTKLEIKR
B8: humanized anti-GPVI Fab VL2 with VH2 (Fab, V domains shown)
VH: QVQLQESGPGLVAPSQSLSITCTVSGFSLTGYGVNWVRQPPSRGLEWLGMIWGDGSTDYQSTLKSRLSISKDNSKSQVFLKMNSLTTDDTARYYCARDLPMDYWGQGTSVTVSS
VL: DIQMTQSPSSLSASVGGRVTITCKASQDINKYIAWYQHKPGKGPSLLIHYTSTLQPGVPSRFSGSGSGRDYSFSISNLQPEDIATYYCLQYAHLLTFGGGTKLEIKR

The values below come from patent EP2397495A1 (SANOFI, dated 2011).

Several values for one entry are separate records, joined by “and”; a condition that tells them apart may be missing. Identical values can stand only once.

This test concerns the target T1, human GPVI on the platelet surface. Kind of test: cell-based or functional assay.
Turning to B1, the “IC50, inhibition of collagen induced platelet aggregation (human platelet rich plasma)” value (shortened to “IC50, inhibition”) was 2.3 µg/mL and 2 µg/mL and 1.1 µg/mL.

Consider B2, for which the “IC50, inhibition” value is 1.6 µg/mL and 1.8 µg/mL and 1.2 µg/mL. For the molecule B3, the “IC50, inhibition” value is 1.5 µg/mL and 1.7 µg/mL. In the case of B4, the “IC50, inhibition” value is 1.5 µg/mL and 2.3 µg/mL.

As for B5, the “IC50, inhibition” value was 1.9 µg/mL and 2.3 µg/mL and 1.2 µg/mL. Next, B6: 1 µg/mL and 2.3 µg/mL and 2 µg/mL. As for B7, the “IC50, inhibition” value is 1.9 µg/mL and 0.9 µg/mL and 2.1 µg/mL. Take B8: the “IC50, inhibition” value is 1.4 µg/mL and 2.4 µg/mL and 2.3 µg/mL.
